Assay results from paper PMC10757926 (2023).
Numbering of substitutions follows the chain as printed. Names may count otherwise. Like-named read-outs stand apart in the source and are kept apart here.

Assays:
Test in all cases: BLI
[1] = biological target: T1, biotinylated recombinant hSIRPα (extracellular portion) (human, UniProt P78324 31-373, biotin (Sulfo-NHS-LC-LC-Biotin))
[2] = biological target: T1, biotinylated recombinant hSIRPα …; remark: listed apart in the source
[3] = biological target: T1, biotinylated recombinant hSIRPα …; remark: listed apart in the source

T1 sequence (P78324 31-373): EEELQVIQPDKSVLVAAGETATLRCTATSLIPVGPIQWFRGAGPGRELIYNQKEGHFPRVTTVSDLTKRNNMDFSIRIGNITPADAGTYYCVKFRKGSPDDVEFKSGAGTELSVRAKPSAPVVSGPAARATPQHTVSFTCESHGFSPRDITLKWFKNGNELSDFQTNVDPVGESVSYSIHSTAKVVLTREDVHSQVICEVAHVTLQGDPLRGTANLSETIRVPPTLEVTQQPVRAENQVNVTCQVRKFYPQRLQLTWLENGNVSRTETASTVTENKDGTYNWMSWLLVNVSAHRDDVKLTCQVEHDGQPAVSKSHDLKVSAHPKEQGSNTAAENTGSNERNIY

B1: hSIRPα Nb S8 (VHH)
VHH: QVQLVESGGGLVQPGGSLRLSCADSEFRLDEYATGWFRQAPGKEREGVACISRSGSNTKYTDSVKGRFTISRDNAKKTVYLQMNSLKPEDTAVYYCAADLTSHYLSCSSYTDYNSWGQGTQVTVSS
[1]
  koff: 0.0009 s⁻¹
[2]
  Kd: 0.46 nM

B2: hSIRPα Nb S41 (VHH)
VHH: HVQLVESGGGLVQPGGSLRLSCAASGETLDYYAIGYVRQAPGKEREGVSCISSRGDNTNYADSVKGRFTISRDNANNTVYLQMNSLKPEDTAVYYCVAIKDSWQNYYCSVGWVEYDVWGQGTQVTVSS
[1]
  koff: 0.00383 s⁻¹
[2]
  Kd: 5.65 nM

B3: hSIRPα Nb S44 (VHH)
VHH: QVQLQESGGGLVQPGGSLRLACAASGFTFSSYDMSWVRQAPGKGLEWVSDIKSGGGRTYYADSVKGRFTISRDNAKNTVYLQMNSLKPEDTAVYYCGSLDNSGAYTGGGQGSQVTVSS
[1]
  koff: 0.00915 s⁻¹
[2]
  Kd: 4.61 nM

B4: hSIRPα Nb S14 (VHH)
VHH: EVQLVESGGGLVQPGGSLRLSCAASGFTANSYRMTWVRQAPGKGLEWVADIGTGNEWKYYPDSVKGRFTISRDAAKNTVYLQMNSLKPEDTAVYYCAKNGAVWYGEDGLDYWGKGTLVTVSS
[1]
  koff: 0.00376 s⁻¹
[2]
  Kd: 16.7 nM

B5: hSIRPα Nb S7 (VHH)
VHH: HVQLVESGGGLVQVGDSLRLSCAPSGRTFRAYAMAWFRQAPGKEREFVAAIRWIGGTPSYKDSVKGRFTISRDNARNTFYLQMNSLEPQDTGVYYCAAEETQKGSGLGHDGRHYDYWGQGTPVTVSS
[1]
  koff: 0.0123 s⁻¹
[2]
  Kd: 20 nM

B6: hSIRPα-S36 Nb (VHH)
VHH: EVQLVESGGGLVQPGGSLRLSCAASGFTLDYYAIGWFRQVPGKEREGVSCISSDGGGNTYYADSVKGRFTISRDNAKNTVYLQMNSLKPEDSAVYSCAAGPTYYSGSYCRDPHSDYDYWGQGTQVTVSS
[1]
  koff: 0.0002 s⁻¹
[2]
  Kd: 0.12 nM

B7: hSIRPα-S36K>R Nb (VHH)
VHH: B6 VHH with K43R, K66R, K77R, K88R
[3]
  Kd: 0.19 nM

B8: hSIRPα Nb S17 (VHH)
VHH: QVQLVESGGGLVQPGGSLRLSCAASGFTLDSYVIGWFRQAPGKEREGVSCISQRIGSTDYADSVKGRFTISKDNAKNTAYLQMNALKPEDTAVYYCAAGRLYYSGTYCPQGGMSYWGKGSPVTVSS
[1]
  koff: 0.00458 s⁻¹
[2]
  Kd: 26.6 nM

B9: hSIRPα Nb S45 (VHH)
VHH: HVQLVESGGGLVQPGGSLRLSCAARGFSFRDSAMSWARQAPGKGLEWVGAIYSDGSTVYEKSVKGRFTISRDNAKNTMYLQMHSLKPEDSARYYCAPKGVVADEGDYSGQGTLVTVSS
[1]
  koff: 0.00164 s⁻¹
[2]
  Kd: 2.53 nM

B10: hSIRPα Nb S21 (VHH)
VHH: DVQLVESGGGLVQPGGSLTLSCAASGFTSGTYALAYFRQAPGKEREGVSCISNDGGSRNYADSVKGRFTISRDNAKNTMYLQMNSLKPEDTAVYYCAAGPWYYCSDFARRPDGMDYWGKGTPVTVSS
[2]
  Kd: 2.56 nM

B11: hSIRPα Nb S12 (VHH)
VHH: QVQLVESGGGLVQPGGSLRLSCLVSGFSSSYYAIGWFRQAPGKEREGVSCITRSGDTTNYADSVKGRFTISRDDARNTVYLQMNSLKTEDTAVYSCALWAWAGSGRLRCTASEYGHWGQGTQVTVSS
[1]
  koff: 0.0127 s⁻¹
[2]
  Kd: 25.9 nM

B12: hSIRPα Nb S33 (VHH)
VHH: EVQLVESGGGLVQPGGSLRLSCTTSGFTLDYYSVGWFRQAPGKEREGVSCITASGSSTNYANSVKGRFTISRDKVKNTVYLQMSSLKPEDTAVYYCAAEPCTVVAGILQAPTSDFGSWGQGTQVTVSS
[1]
  koff: 0.00544 s⁻¹
[2]
  Kd: 20 nM

B13: hSIRPα Nb S29 (VHH)
VHH: EVQLVESGGGLVQPGGSLRLSCAASGFTSETYAIGWFRQAPGKEREGVSCISNDGGSRNYADSVKGRFTISRDNAKNTSYLQMNSLKPEDTAVYYCAAGKYYYCLGYVSDGMDYWGKGTPVTVSS
[1]
  koff: 0.00462 s⁻¹
[2]
  Kd: 4.78 nM

B14: hSIRPα Nb S43 (VHH)
VHH: HVQLVESGGGLVQPGGSARLSCAASGFDLDYFAIGWFRQAPGKEREGVSCISTRSETTNYVDSVKGRFTISRDNAISTVYLQMNNLKPEDTAVYYCAADWADWTMTGCQMTWDDYNYWGQGAQVTVSS
[1]
  koff: 0.131 s⁻¹
[2]
  Kd: 99 nM
